Assay results: US20250369024A1, “Acyloin Condensation Reactions, Enzymes, and Products Thereof” (Mojia Biotech Pte. Ltd., priority 2023, published 2025)

What was measured:
Format in all cases: cell-based, E. coli
[1] = tested on: Formaldehyde; assay: HACS screening, formaldehyde-formyl-CoA condensation in vivo (resting cells), glycolate; conditions: 2.5 mM formaldehyde and 20 mM formate, 0.5 hours
Source text: To implement the C1 elongation pathway for glycolate production in vivo, we engineered vectors to independently control expression of various HACS candidates and the acyl-CoA transferase from Clostridium aminobutyricum (CaAbfT), with HACS under control of the IPTG-inducible T7 promoter in pETDuet-1 and CaAbfT under control of a cumate-inducible T5 promoter in pCDFDuet-1 (FIG. 14C). As a host for these vectors, we used an engineered strain of E. coli based on MG1655(DE3) with knockouts for formaldehyde (ΔfrmA) and formate (ΔfdhF ΔfdnG ΔfdoG) oxidation as well as for glycolate utilization (ΔglcD), which we expected could compete or interfere with the analysis of our pathway (FIG. 14B).
In vivo product synthesis was conducted using M9 minimal media (6.78 g/L Na2HPO4, 3 g/L KH2PO4, 1 g/L NH4Cl, 0.5 g/L NaCl, 2 mM MgSO4, 100 μM CaCl2), and 15 μM thiamine-HCl) unless otherwise stated. […]
Cells from the above pre-cultures were then centrifuged (4000 rpm, 22° C.), washed with the above minimal media without any carbon source, and resuspended with 1 mL of above minimal media containing indicated amounts of carbon source. […] After incubation at 30° C. for 0.5 hours, the cells were pelleted by centrifugation and the media analyzed (FIG. 14A).

[2] = tested on: Acetaldehyde; assay: HACS screening, acetaldehyde-C1 condensation (resting cells), lactic acid; conditions: 20 mM acetaldehyde and 20 mM formate, 3 hours
Source text: (§1) To implement the C1 elongation pathway for lactic acid production in vivo, we engineered vectors to independently control expression of various HACS candidates and the acyl-CoA transferase from Clostridium aminobutyricum (CaAbfT), with HACS under control of the IPTG-inducible T7 promoter in pCDFDuet-1 and CaAbfT under control of a cumate-inducible T5 promoter in pETDuet-1. As a host for these vectors, we used an engineered strain of E. coli based on MG1655(DE3) with knockouts for formaldehyde (ΔfrmA) and formate (ΔfdhF ΔfdnG ΔfdoG) oxidation as well as for glycolate utilization (ΔglcD).
(§2) In vivo product synthesis was conducted using M9 minimal media (6.78 g/L Na2HPO4, 3 g/L KH2PO4, 1 g/L NH4Cl, 0.5 g/L NaCl, 2 mM MgSO4, 100 μM CaCl2), and 15 μM thiamine-HCl) unless otherwise stated. Cells were initially grown in 96-deep well plates (USA Scientific, Ocala, FL) containing 0.5 mL of the above media further supplemented with 20 g/L glycerol, 10 g/L tryptone, and 5 g/L yeast extract. […]
(§3) Cells from the above pre-cultures were then centrifuged (4000 rpm, 22° C.), washed with the above minimal media without any carbon source, and resuspended with 1 mL of above minimal media containing indicated amounts of carbon source. […] After incubation at 30° C. for 3 hours, the cells were pelleted by centrifugation and the media was analyzed using HPLC.

[3] = tested on: Glycolaldehyde; assay: HACS screening, glycolaldehyde-C1 condensation (resting cells), glyceric acid; conditions: 20 mM glycolaldehyde and 20 mM formate, 3 hour
Source text: as §1, with “glyceric” for “lactic”
as §2
as §3, with “hour,” for “hours,”

[4] = tested on: Methional; assay: HACS screening, methional-C1 condensation (resting cells), desmeninol; conditions: 20 mM methional and 20 mM formate, 3 hours
Source text: as §1, with “leucic” for “lactic”
as §2, §3

B1: RuHACL: Engineered 2-hydroxyphytanoyl-CoA lyase [Rhodospirillales bacterium URHD0017], SEQ ID NO: 1 (protein)
chain: MSEVDGATLIARSLKQQGIDHLFGVVGFPITAIAAAAQKEGVAYLGMRNEQSAAYAAAAYGYLTGRPGAAVVVTGPGVVHGLSGLANAQQNCWPMILIGGASETYRGGMGAFQEERQVLIASPFCKFAHGIESVARIPFYVEMATRNAIYGRPGATYLDMPDDIIRGTCETDKIAQAERVPEAPRSVAPAENVEAALDLLEKAQRPLVLLGKGMAWSRGEDEVRAFIERTQVPFVRSPMGKGVMPDDHPLSASAARTLALQQADVIFLMGARLNWIFHFGLPPRYAKDVKVIQLDIAPEEIGHNKPTEVALVGDGKAIMAQLNKALVNRQWFHPKDTPWRQALTKKAAENVATIKPQVDDDQGPAGYYRALRDVAAWMPKNAILSAEGANTMDIGLTQLASSNARSVLNAGTYGTMGVGLGQAIAAAVSDPSRPVIHLSGDSAIGFSGMEMETLVRYNLPVKIVVLNNGGIGPGMPEIPENPMFNLKPNALIYGARYDKVMEAFGGKGIFVKEPKDIRKALDEAMAFKGPALVNVVLSQGSTRKAQQFAWHS
modifications: Rhodospirillales bacterium URHD0017 engineered 2-hydroxyphytanoyl-CoA lyase
Product flux, substrate Formaldehyde, product Glycolate [1]: 44.5 μM/OD/h | Product flux, substrate Acetaldehyde, product Lactate [2]: 78.1 μM/OD/h | Product flux, substrate Glycolaldehyde, product Glycerate [3]: 7.2 μM/OD/h | Product flux, substrate Methional, product Desmeninol [4]: 20.0 μM/OD/h
